Numbering of substitutions follows the chain as printed.
B1: ARC32305 (mixed)
RNA: GAAUAUACUUGGCUCGUUAGGUGCGUAUAU
modifications: 2'-OMe A/G/U, 2'-deoxy C, 3' idT
B2: ARC33139 (mixed)
RNA: GGAAUAUACUUGGCUCGUUAGGUGCGAUAUA
modifications: 2'-OMe A/G/U, 2'-deoxy C, 3' idT
B3: ARC33140 (mixed)
RNA: B2 RNA with A27U
modifications: 2'-OMe A/G/U, 2'-deoxy C, 3' idT
B4: ARC33142 (mixed)
RNA: B2 RNA with A27U, U28A, A29U
modifications: 2'-OMe A/G/U, 2'-deoxy C, 3' idT
B5: ARC33900 (mixed)
RNA: UUACUUGGCUCGUUAGGUGCGUAUA
modifications: 2'-OMe A/G/U, 2'-deoxy C, 3' idT
B6: ARC33907 (mixed)
RNA: GGAAUACUUGGCUCGUUAGGUGCGUAUAUA
modifications: 2'-OMe A/G/U, 2'-deoxy C, 3' idT
B7: ARC33144 (mixed)
RNA: B6 RNA with A3U
modifications: 2'-OMe A/G/U, 2'-deoxy C, 3' idT
B8: ARC33147 (mixed)
RNA: GGAAUAUACUUGGCUCGAGGUGCGUAUAUA
modifications: 2'-OMe A/G/U, 2'-deoxy C, 3' idT
B9: ARC32306 (mixed)
RNA: AAUAUACUUGGCUCGUUAGGUGCGUAUA
modifications: 2'-OMe A/G/U, 2'-deoxy C, 3' idT
B10: ARC33146 (mixed)
RNA: GGAAUAUACUUCUCGUUAGGUGCGUAUAUA
modifications: 2'-OMe A/G/U, 2'-deoxy C, 3' idT
B11: ARC33895 (mixed)
RNA: AUACUUGGCUCGUUAGGUGCGUAUA
modifications: 2'-OMe A/G/U, 2'-deoxy C, 3' idT
B12: ARC33164 (mixed)
mixed: GGAAUAUACUUGGCUTGUUAGGUGCGUAUAUA
modifications: 2'-OMe A/G/U, dT16, 2'-deoxy C, 3' idT
B13: ARC33175 (mixed)
RNA: B12 mixed with T16C, U27C
modifications: 2'-OMe A/G/U and mC27, other C 2'-deoxy, 3' idT
B14: ARC33168 (mixed)
RNA: B12 mixed with T16C, A20U
modifications: 2'-OMe A/G/U, 2'-deoxy C, 3' idT
B15: ARC33174 (mixed)
RNA: B12 mixed with T16C, G26U
modifications: 2'-OMe A/G/U, 2'-deoxy C, 3' idT
B16: ARC34868 (mixed)
RNA: B12 mixed with U7A, T16C
modifications: 2'-OMe A/G/U, 2'-deoxy C, 3' idT
B17: ARC33160 (mixed)
RNA: B12 mixed with G12U, T16C
modifications: 2'-OMe A/G/U, 2'-deoxy C, 3' idT
B18: ARC33165 (mixed)
RNA: B12 mixed with T16C, G17U
modifications: 2'-OMe A/G/U, 2'-deoxy C, 3' idT
B19: ARC33159 (mixed)
RNA: B12 mixed with U11C, T16C
modifications: 2'-OMe A/G/U and mC11, other C 2'-deoxy, 3' idT
B20: ARC33176 (mixed)
RNA: B12 mixed with T16C, A28U
modifications: 2'-OMe A/G/U, 2'-deoxy C, 3' idT
B21: ARC33172 (mixed)
RNA: B12 mixed with T16C, G24U
modifications: 2'-OMe A/G/U, 2'-deoxy C, 3' idT
B22: ARC33171 (mixed)
RNA: B12 mixed with T16C, U23C
modifications: 2'-OMe A/G/U and mC23, other C 2'-deoxy, 3' idT
B23: ARC33163 (mixed)
RNA: B12 mixed with U15C, T16C
modifications: 2'-OMe A/G/U and mC15, other C 2'-deoxy, 3' idT
B24: ARC33170 (mixed)
RNA: B12 mixed with T16C, G22U
modifications: 2'-OMe A/G/U, 2'-deoxy C, 3' idT
B25: ARC33173 (mixed)
mixed: B12 mixed with T16C, C25T
modifications: 2'-OMe A/G/U, dT25, 2'-deoxy C, 3' idT
B26: ARC33157 (mixed)
mixed: B12 mixed with C9T, T16C
modifications: 2'-OMe A/G/U, dT9, 2'-deoxy C, 3' idT
B27: ARC33161 (mixed)
RNA: B12 mixed with G13U, T16C
modifications: 2'-OMe A/G/U, 2'-deoxy C, 3' idT
B28: ARC34869 (mixed)
RNA: B12 mixed with U7G, T16C
modifications: 2'-OMe A/G/U, 2'-deoxy C, 3' idT
B29: ARC32303 (mixed)
RNA: AUAUACUUGGCUCGUUAGGUGCGUAUAUA
modifications: 2'-OMe A/G/U, 2'-deoxy C, 3' idT
B30: ARC33135 (mixed)
RNA: GGAAUAUACUUGGCUCGUUAGGGCGUAUAUA
modifications: 2'-OMe A/G/U, 2'-deoxy C, 3' idT
B31: ARC33137 (mixed)
RNA: B30 RNA with G23U, C24G
modifications: 2'-OMe A/G/U, 2'-deoxy C, 3' idT
B32: ARC33136 (mixed)
RNA: B30 RNA with G23U
modifications: 2'-OMe A/G/U, 2'-deoxy C, 3' idT
B33: ARC33138 (mixed)
RNA: B2 RNA with G26U
modifications: 2'-OMe A/G/U, 2'-deoxy C, 3' idT
B34: ARC33890 (mixed)
RNA: AUAUACUUGGCUCGUUAGGUGCGUAUA
modifications: 2'-OMe A/G/U, 2'-deoxy C, 3' idT
B35: ARC33891 (mixed)
RNA: UAUACUUGGCUCGUUAGGUGCGUAUA
modifications: 2'-OMe A/G/U, 2'-deoxy C, 3' idT
B36: ARC32302 (mixed)
RNA: B6 RNA with G1A, G2A, A3U
modifications: 2'-OMe A/G/U, 2'-deoxy C, 3' idT
B37: ARC33145 (mixed)
RNA: B10 RNA with U10G, U11G
modifications: 2'-OMe A/G/U, 2'-deoxy C, 3' idT
B38: ARC33148 (mixed)
RNA: B8 RNA with A18U, G19U, G20A
modifications: 2'-OMe A/G/U, 2'-deoxy C, 3' idT
B39: ARC32301 (mixed)
RNA: GAAUAUACUUGGCUCGUUAGGUGCGUAUAUA
modifications: 2'-OMe A/G/U, 2'-deoxy C, 3' idT
B40: ARC33120 (mixed)
RNA: B39 RNA with A2G
modifications: 2'-OMe A/G/U, 2'-deoxy C, 3' idT
B41: ARC33121 (mixed)
RNA: B39 RNA with A2G, U4A
modifications: 2'-OMe A/G/U, 2'-deoxy C, 3' idT
B42: ARC33143 (mixed)
RNA: GGAAUAUACUUGGCUCGUUAGGUGCGUAUAA
modifications: 2'-OMe A/G/U, 2'-deoxy C, 3' idT
B43: ARC18555 (mixed)
RNA: B42 RNA with A31U
modifications: 2'-OMe A/G/U, 2'-deoxy C, 3' idT
B44: ARC32307 (mixed)
RNA: AUAUACUUGGCUCGUUAGGUGCGUAU
modifications: 2'-OMe A/G/U, 2'-deoxy C, 3' idT

Key:
Details in all cases: tags: American Diagnostica 4500PC/4900PC, E. coli expressed
[1] = target: T1, TFPI (tissue factor pathway inhibitor, full-length) (Homo sapiens, UniProt P10646 SEQ:1-276); experiment: competition; meets binding-competition criterion
Experimental: (§1) Each molecule was evaluated for binding to tissue factor pathway inhibitor (TFPI) in a binding-competition assay. For these experiments, 10 nM human TFPI (American Diagnostica, Stamford, Conn., catalog #4500PC) was incubated with trace amounts of radiolabeled ARC17480 and 5000 nM, 1666.67 nM, 555.56 nM, 185.19 nM, 61.73 nM, 20.58 nM, 6.86 nM, 2.29 nM, 0.76 nM or 0.25 nM of unlabeled competitor aptamer. ARC17480 was included as a competitor in every experiment as a control. For each molecule, the percentage of radiolabeled ARC17480 bound at each competitor aptamer concentration was used for analysis. The percentage of radiolabeled ARC17480 bound was plotted as a function of aptamer concentration and fit to the equation y=(max/(1+x/IC₅₀))+int, where y=the percentage of radiolabeled ARC17480 bound, x=the concentration of aptamer, max=the maximum radiolabeled ARC17480 bound, and int=the y-intercept, to generate an IC₅₀ value for binding-competition. The IC₅₀ of each aptamer was compared to the IC₅₀ of ARC17480 that was evaluated in the same experiment. A substitution was considered tolerated in the binding-competition assay if the IC₅₀ of that molecule was not more than 5-fold greater than that of ARC17480 evaluated in the same experiment. Tolerated substitutions are indicated in Table 38 as meeting the assay criteria (“yes”) or not meeting the assay criteria (“no”).

[2] = target: T1, TFPI (tissue factor pathway inhibitor, …); experiment: competition; fails binding-competition criterion
Experimental: as §1

[3] = target: T1, TFPI (tissue factor pathway inhibitor, …); experiment: competition; fails binding-competition criterion; remark: listed apart in the source
Experimental: The substituted ARC17480 molecules were assayed for binding and function. The assays used for this evaluation were the calibrated automated thrombogram (CAT) assay, a dot-blot binding-competition assay and a FXa activity assay. The results of these assays are summarized in Table 40 and depicted in FIG. 147. A mutation was considered tolerated for activity if it met the criteria of at least two of the three assays that were carried out. Mutations that are tolerated (“yes”) and not tolerated (“no”) are identified in Table 40. The experimental details and the criteria used for each assay are described in the following paragraphs. The molecules described in this example were first tested in the CAT assay and the dot-blot binding-competition assay. In most cases, molecules were only tested in the FXa assay if there was a discrepancy between the results in the CAT assay and the dot-blot binding-competition assay.
Each molecule was evaluated for binding to tissue factor pathway inhibitor (TFPI) in a binding-competition assay. For these experiments, 10 nM human TFPI (American Diagnostica, Stamford, Conn., catalog #4900PC) was incubated with trace amounts of radiolabeled ARC17480 and 5000 nM, 1666.67 nM, 555.56 nM, 185.19 nM, 61.73 nM, 20.58 nM, 6.86 nM, 2.29 nM, 0.76 nM or 0.25 nM of unlabeled competitor aptamer. ARC17480 was included as a competitor in every experiment as a control. For each molecule, the percentage of radiolabeled ARC17480 bound at each competitor aptamer concentration was used for analysis. The percentage of radiolabeled ARC17480 bound was plotted as a function of aptamer concentration and fit to the equation y=(max/(1+x/IC₅₀))+int, where y=the percentage of radiolabeled ARC17480 bound, x=the concentration of aptamer, max=the maximum radiolabeled ARC17480 bound, and int=the y-intercept, to generate an IC₅₀ value for binding-competition. The IC₅₀ of each aptamer was compared to the IC₅₀ of ARC17480 that was evaluated in the same experiment. A mutation was considered tolerated in the binding-competition assay if the IC₅₀ of that molecule was not more than 5-fold greater than that of ARC17480 evaluated in the same experiment. Tolerated mutations are indicated in Table 40 as meeting the assay criteria (“yes”) or not meeting the assay criteria (“no”).

T1 sequence (P10646 29-304): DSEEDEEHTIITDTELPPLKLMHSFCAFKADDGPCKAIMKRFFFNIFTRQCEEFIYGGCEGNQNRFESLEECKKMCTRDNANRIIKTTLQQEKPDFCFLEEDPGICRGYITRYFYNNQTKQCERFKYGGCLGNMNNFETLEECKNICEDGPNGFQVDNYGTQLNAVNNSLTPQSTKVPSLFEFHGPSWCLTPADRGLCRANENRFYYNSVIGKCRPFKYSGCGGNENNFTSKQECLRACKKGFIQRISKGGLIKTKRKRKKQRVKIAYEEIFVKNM

| Binder | binding signal [1] | binding signal [3] | further results |
| --- | --- | --- | --- |
| B1 | ≤ 5 fold IC50 of ARC17480 |  |  |
| B2 |  |  | binding signal [2]: > 5 fold IC50 of ARC17480 |
| B3 |  |  | binding signal [2]: > 5 fold IC50 of ARC17480 |
| B4 | ≤ 5 fold IC50 of ARC17480 |  |  |
| B5 | ≤ 5 fold IC50 of ARC17480 |  |  |
| B6 | ≤ 5 fold IC50 of ARC17480 |  |  |
| B7 | ≤ 5 fold IC50 of ARC17480 |  |  |
| B8 |  |  | binding signal [2]: > 5 fold IC50 of ARC17480 |
| B9 | ≤ 5 fold IC50 of ARC17480 |  |  |
| B10 |  |  | binding signal [2]: > 5 fold IC50 of ARC17480 |
| B11 | ≤ 5 fold IC50 of ARC17480 |  |  |
| B12 |  | > 5 fold IC50 of ARC17480 |  |
| B13 |  | > 5 fold IC50 of ARC17480 |  |
| B14 |  | > 5 fold IC50 of ARC17480 |  |
| B15 |  | > 5 fold IC50 of ARC17480 |  |
| B16 |  | > 5 fold IC50 of ARC17480 |  |
| B17 |  | > 5 fold IC50 of ARC17480 |  |
| B18 |  | > 5 fold IC50 of ARC17480 |  |
| B19 |  | > 5 fold IC50 of ARC17480 |  |
| B20 |  | > 5 fold IC50 of ARC17480 |  |
| B21 |  | > 5 fold IC50 of ARC17480 |  |
| B22 |  | > 5 fold IC50 of ARC17480 |  |

| Binder | binding signal [1] | binding signal [3] | further results |
| --- | --- | --- | --- |
| B23 |  | > 5 fold IC50 of ARC17480 |  |
| B24 |  | > 5 fold IC50 of ARC17480 |  |
| B25 |  | > 5 fold IC50 of ARC17480 |  |
| B26 |  | > 5 fold IC50 of ARC17480 |  |
| B27 |  | > 5 fold IC50 of ARC17480 |  |
| B28 |  | > 5 fold IC50 of ARC17480 |  |
| B29 | ≤ 5 fold IC50 of ARC17480 |  |  |
| B30 |  |  | binding signal [2]: > 5 fold IC50 of ARC17480 |
| B31 |  |  | binding signal [2]: > 5 fold IC50 of ARC17480 |
| B32 |  |  | binding signal [2]: > 5 fold IC50 of ARC17480 |
| B33 |  |  | binding signal [2]: > 5 fold IC50 of ARC17480 |
| B34 | ≤ 5 fold IC50 of ARC17480 |  |  |
| B35 | ≤ 5 fold IC50 of ARC17480 |  |  |
| B36 | ≤ 5 fold IC50 of ARC17480 |  |  |
| B37 |  |  | binding signal [2]: > 5 fold IC50 of ARC17480 |
| B38 |  |  | binding signal [2]: > 5 fold IC50 of ARC17480 |
| B39 | ≤ 5 fold IC50 of ARC17480 |  |  |
| B40 | ≤ 5 fold IC50 of ARC17480 |  |  |
| B41 | ≤ 5 fold IC50 of ARC17480 |  |  |
| B42 | ≤ 5 fold IC50 of ARC17480 |  |  |
| B43 | ≤ 5 fold IC50 of ARC17480 |  |  |
| B44 | ≤ 5 fold IC50 of ARC17480 |  |  |

From US20110281938, “APTAMERS TO TISSUE FACTOR PATHWAY INHIBITOR AND THEIR USE AS BLEEDING DISORDER THERAPEUTICS” (Baxter Healthcare S.A., published 2011)
